According to US20190062427A1:

Assays:
[1] = molecular target: human Siglec-9 expressed on human cells (human) (UniProt Q9Y336); test: cell-based or functional assay
[2] = molecular target: human Siglec-9 expressed on human cells (human) (UniProt Q9Y336); test: flow cytometry on human primary monocytes, 10 ug/ml mAb, PE secondary
[3] = molecular target: human Siglec-9 expressed on human cells (human) (UniProt Q9Y336); test: flow cytometry on human primary macrophages, 10 ug/ml mAb, PE secondary
[4] = molecular target: human Siglec-9 expressed on human cells (human) (UniProt Q9Y336); test: flow cytometry on human primary dendritic cells, 10 ug/ml mAb, PE secondary
[5] = molecular target: Histidine-tagged human Siglec-9 (NovoProtein) (human) (UniProt Q9Y336); test: SPR Biacore T200, 25 C, 25 nM mAb captured on anti-mouse IgG CM5 chip, His-tagged Siglec-9 200 nM as analyte, single-concentration 1:1 fit
[6] = molecular target: Siglec-9-Fc (R&D Systems, catalog number 1139-SL-050) (human) (UniProt Q9Y336); test: FACS ligand competition: 25 ug/ml mAb pre-coupled with 25 ug/ml Siglec-9-Fc, binding to sialic acid ligands on U937 cells, anti-human IgG-PE
Chain of Siglec-9-Fc (R&D Systems, catalog number 1139-SL-050) (human) (Q9Y336 18-348 limits assumed): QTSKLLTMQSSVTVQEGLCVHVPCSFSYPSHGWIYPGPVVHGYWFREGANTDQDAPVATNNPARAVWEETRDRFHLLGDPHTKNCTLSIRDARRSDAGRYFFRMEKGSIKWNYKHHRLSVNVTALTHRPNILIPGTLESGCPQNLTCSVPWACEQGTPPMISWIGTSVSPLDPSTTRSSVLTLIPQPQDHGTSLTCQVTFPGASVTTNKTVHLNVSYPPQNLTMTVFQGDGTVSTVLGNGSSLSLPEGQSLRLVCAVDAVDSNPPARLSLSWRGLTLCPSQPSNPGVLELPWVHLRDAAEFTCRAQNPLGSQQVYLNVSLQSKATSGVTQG

Chain of human Siglec-9 expressed on human cells (human) (Q9Y336 18-463): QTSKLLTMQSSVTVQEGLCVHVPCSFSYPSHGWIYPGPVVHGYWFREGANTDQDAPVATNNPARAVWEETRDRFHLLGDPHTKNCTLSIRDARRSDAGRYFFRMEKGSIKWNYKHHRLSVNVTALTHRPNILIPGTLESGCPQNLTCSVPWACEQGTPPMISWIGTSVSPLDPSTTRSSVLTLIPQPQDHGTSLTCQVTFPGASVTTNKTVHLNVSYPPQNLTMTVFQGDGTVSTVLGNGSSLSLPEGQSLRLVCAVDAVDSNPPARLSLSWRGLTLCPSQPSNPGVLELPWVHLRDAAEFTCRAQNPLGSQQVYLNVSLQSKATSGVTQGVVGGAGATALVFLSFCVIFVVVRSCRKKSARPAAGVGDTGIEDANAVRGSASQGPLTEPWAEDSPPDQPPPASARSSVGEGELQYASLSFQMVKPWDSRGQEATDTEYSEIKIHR
Chain of Histidine-tagged human Siglec-9 (NovoProtein) (human) (Q9Y336 18-348 limits assumed): as the sequence (Q9Y336 18-348 limits assumed) above

B1: anti-Siglec-9 antibody 6D8 (antibody, IgG2b, V domains shown, part only)
VH: VQLQQSGAELVKPGASVKLSCKASGYTFTSYWMHWVKQRPGQGLEWIGEIDPSDSYTYYNQKFKGKATLTVDKSSSTAYMQLSSLTSEDSAVYYCAAYYSNYVRAYWGQGTLVTVSA
VL: DIQKPQSPFYMCVSGGETISISSHTTRGIYWYKGGSAEKPEKPFKLEIYCARNGEGGAPSRFSGRGSGTDFSLTINRGESEDCAEYYCAQFYQFPWTFGGGTKLEIK
Binder B1 has a Percent Siglec-9 Surface Expression, DCs (% Siglec-9) [1] of 60.2%, a Percent Siglec-9 Surface Expression, Macrophages (% Siglec-9) [1] of 21.3% and a Percent Siglec-9 Surface Expression, Microglia (% Siglec-9) [1] of 45.4%. It also gave a Percent Siglec-9 Surface Expression, Monocytes (% Siglec-9) [1] of 42.2%, a Percent Siglec-9 Surface Expression, THP-1 cells (% Siglec-9) [1] of 62.6% and a % Positive [2] of 29.6%. For the same binder, the MFI [2] was 198, the % Positive [3] was 93.5% and the MFI [3] was 473. The % Positive [4] was 27.6%, the MFI [4] was 197 and the Kd [5] was 6.7 nM. The Percent Siglec-9-Fc Binding [6] was 97.8%.
